Results as given in article doi:10.1101/2025.06.13.659598.

How the values were obtained:
[1] = target: nesprin-2G SR11-12 (spectrin repeats 11-12 of human nesprin-2) (human); assay: BLI
[2] = target: nesprin-2G SR11-13 (spectrin repeats 11-13 of human nesprin-2) (human); assay: BLI

Kd [1]: 472 nM
Kd [2]: 92 nM
B1: FHOD1 SRBD-DID (amino terminal construct of human FHOD1) (domain or fragment)
chain: SVVTVRVQYLEDTDPFACANFPEPRRAPTCSLDGALPLGAQIPAVHRLLGAPLKLEDCALQVSPSGYYLDTELSLEEQREMLEGFYEEISKGRKPTLILRTQLSVRVNAILEKLYSSSGPELRRSLFSLKQIFQEDKDLVPEFVHSEGLSCLIRVGAAADHNYQSYILRALGQLMLFVDGMLGVVAHSDTIQWLYTLCASLSRLVVKTALKLLLVFVEYSENNAPLFIRAVNSVASTTGAPPWANLVSILEEKNGADPELLVYTVTLINKTLAALPDQDSFYDVTDALEQQGMEALVQRHLGTAGTDVDLRTQLVLYENAL
